Laboratory results: patent publication US20240109962A1 (SPARX BIOSCIENCE, published 2024)
Changes are numbered by the printed parent chain. Like-named read-outs stand apart in the source and are kept apart here. Each block holds one binder with its values, some of them ahead of it.

Legend:
[1] = target: LILRB2 antigen of the ELISA of Table 5 (format not specified) (UniProt Q8N423 22-460, limits assumed); assay: ELISA, antibody titration
[2] = target: T1, His-tagged human LILRB2 polypeptide (human, UniProt Q8N423 22-460); assay: SPR, antibody on CM5 chip, His-LILRB2 analyte, 1:1 model
T1 construct: SPR analyte; also called His-tagged human LILBR2 polypeptide; not shown: His tag
T1 sequence (Q8N423 22-460 limits assumed): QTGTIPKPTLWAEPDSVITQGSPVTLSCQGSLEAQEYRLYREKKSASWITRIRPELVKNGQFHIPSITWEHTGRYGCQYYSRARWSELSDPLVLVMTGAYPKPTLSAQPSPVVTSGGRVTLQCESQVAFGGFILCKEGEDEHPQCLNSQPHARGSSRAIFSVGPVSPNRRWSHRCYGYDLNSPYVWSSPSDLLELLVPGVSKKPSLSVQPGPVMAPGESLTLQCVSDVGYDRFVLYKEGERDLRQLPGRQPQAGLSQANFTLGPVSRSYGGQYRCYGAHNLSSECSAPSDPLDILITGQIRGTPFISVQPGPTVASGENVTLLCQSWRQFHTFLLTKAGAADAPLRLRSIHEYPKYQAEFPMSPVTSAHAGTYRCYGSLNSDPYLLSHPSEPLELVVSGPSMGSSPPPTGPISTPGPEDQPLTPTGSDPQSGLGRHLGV
Description: Surface plasmon resonance (SPR) was used to examine binding activities of exemplary anti-LILBR2 antibodies disclosed herein. Briefly, the anti-LILBR2 antibody was diluted in a coating buffer to a concentration of 30 μg/ml, loaded onto CM5 chips at 10 μl/min to allow coating of the antibody on the surface of the CM5 chip. […] Binding affinity was measured based on the 1:1 binding model.

[3] = target: T2, human LILRB3 expressed on 293T cells (human, UniProt O75022 24-631); assay: cell ELISA on fixed 293T transfectants, OD490
T2 construct: whole, on cells
Description: (§1) The cells were then immobilized with glutaraldehyde in the presence of 5% defatted milk at room temperature for 2 hours. An anti-LILRB2 antibody (2 μg/ml) was added to each well and incubated at room temperature for 2 hours. An HRP-labelled goat anti-mouse secondary antibody was then added into each well and incubated at room temperature for one hour. An HRP substrate, o-phenylenediamine dihydrochloride (OPD) was then added to each well. The plate was incubated at room temperature for 15 min to allow color development and OD₄₉₀ values were determined.

[4] = target: T3, human LILRB1 expressed on 293T cells (human, UniProt Q8NHL6 24-650); assay: cell ELISA on fixed 293T transfectants, OD490
T3 construct: whole, on cells
T3 sequence (Q8NHL6 24-650): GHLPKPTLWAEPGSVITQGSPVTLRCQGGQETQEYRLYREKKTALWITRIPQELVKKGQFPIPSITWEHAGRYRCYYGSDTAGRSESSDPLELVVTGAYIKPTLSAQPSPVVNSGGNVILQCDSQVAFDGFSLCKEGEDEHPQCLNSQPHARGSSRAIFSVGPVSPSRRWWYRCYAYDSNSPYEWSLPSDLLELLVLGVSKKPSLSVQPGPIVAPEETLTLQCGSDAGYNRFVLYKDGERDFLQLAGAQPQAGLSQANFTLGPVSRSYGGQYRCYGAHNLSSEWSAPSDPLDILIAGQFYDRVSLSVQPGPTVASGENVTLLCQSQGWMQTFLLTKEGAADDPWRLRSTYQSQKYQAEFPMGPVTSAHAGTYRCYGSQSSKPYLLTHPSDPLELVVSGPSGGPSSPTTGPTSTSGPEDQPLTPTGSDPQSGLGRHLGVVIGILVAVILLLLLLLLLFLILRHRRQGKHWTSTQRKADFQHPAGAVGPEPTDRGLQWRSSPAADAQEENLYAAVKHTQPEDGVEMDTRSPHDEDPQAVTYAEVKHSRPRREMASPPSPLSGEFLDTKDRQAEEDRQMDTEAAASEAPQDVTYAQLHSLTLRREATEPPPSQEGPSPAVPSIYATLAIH
Description: as §1

LILRB1-His = target: T4, LILRB1-His; assay: ELISA on recombinant His-tagged protein, OD450
T4 construct: also called His-tagged LILRB1; recombinant LILRB1 protein
T4 sequence (chain, as listed by the source limits assumed): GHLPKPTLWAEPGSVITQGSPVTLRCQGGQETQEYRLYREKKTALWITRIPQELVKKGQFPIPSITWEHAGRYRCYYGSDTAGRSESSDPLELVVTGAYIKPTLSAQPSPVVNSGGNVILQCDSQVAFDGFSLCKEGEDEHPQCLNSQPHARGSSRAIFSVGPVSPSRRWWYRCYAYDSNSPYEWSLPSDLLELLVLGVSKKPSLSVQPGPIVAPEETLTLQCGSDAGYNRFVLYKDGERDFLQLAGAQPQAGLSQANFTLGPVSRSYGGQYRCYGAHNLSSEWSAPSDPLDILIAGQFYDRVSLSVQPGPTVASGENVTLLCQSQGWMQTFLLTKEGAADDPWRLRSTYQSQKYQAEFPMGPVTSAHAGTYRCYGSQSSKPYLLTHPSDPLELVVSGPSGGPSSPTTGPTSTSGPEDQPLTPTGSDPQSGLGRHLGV

LILRB3-His = target: T5, LILRB3-His; assay: ELISA on recombinant His-tagged protein, OD450
T5 construct: also called His-tagged LILRB3; recombinant LILRB3 protein

LILRB2-Fc fusion protein = target: T6, LILRB2-Fc fusion protein (human, UniProt Q8N423 22-460, limits assumed); assay: ELISA, blockade of LILRB2-Fc binding to coated His-ANGPTL2
T6 construct: not shown: Fc
T6 sequence (Q8N423 22-460 limits assumed): as the sequence (Q8N423 22-460 limits assumed) above
Description: His-tagged ANGPTL2 protein (1 μg/ml) was placed in a 96-well plate ([…]) and incubated at 4° C. overnight. Afterwards, LILRB2-Fc fusion protein at 0.25 mg/ml was incubated with the anti-LILRB2 antibody at various concentrations at room temperature for one hour and then added into the His-ANGPTL2 coated plate. The plate was placed in a shaker at 500 rpm for 2 hours at room temperature. HRP-labelled goat anti-human Fc antibody (1:10,000 dilution) was added to the plate (100 μl/well). After incubation at room temperature for 1 hour, TMB was added for color development.
Clones 11B12, 9B6, 9H6, and 14F1 were selected for dose-dependent blockade assays. A mouse IgG (mIgG) antibody was used as a negative control. […] The IC₅₀ values are around 1 nM. […] (ix) Exemplary Anti-LILBR2 Antibodies Enhanced TNFα Expression and Suppressed IL-10 Expression in LPS-Stimulated PBMCs

[5] = target: T7, human LILRB2 expressed on cells (293T-LILRB2, CHO-K1-LILRB2) (human, UniProt Q8N423 22-597); assay: cell ELISA, 293T-LILRB2 cells, antibody 2 ug/ml
T7 construct: whole, on cells; the cell line is named under assay; also called HEK293T-LILRB2
T7 sequence (Q8N423 22-597): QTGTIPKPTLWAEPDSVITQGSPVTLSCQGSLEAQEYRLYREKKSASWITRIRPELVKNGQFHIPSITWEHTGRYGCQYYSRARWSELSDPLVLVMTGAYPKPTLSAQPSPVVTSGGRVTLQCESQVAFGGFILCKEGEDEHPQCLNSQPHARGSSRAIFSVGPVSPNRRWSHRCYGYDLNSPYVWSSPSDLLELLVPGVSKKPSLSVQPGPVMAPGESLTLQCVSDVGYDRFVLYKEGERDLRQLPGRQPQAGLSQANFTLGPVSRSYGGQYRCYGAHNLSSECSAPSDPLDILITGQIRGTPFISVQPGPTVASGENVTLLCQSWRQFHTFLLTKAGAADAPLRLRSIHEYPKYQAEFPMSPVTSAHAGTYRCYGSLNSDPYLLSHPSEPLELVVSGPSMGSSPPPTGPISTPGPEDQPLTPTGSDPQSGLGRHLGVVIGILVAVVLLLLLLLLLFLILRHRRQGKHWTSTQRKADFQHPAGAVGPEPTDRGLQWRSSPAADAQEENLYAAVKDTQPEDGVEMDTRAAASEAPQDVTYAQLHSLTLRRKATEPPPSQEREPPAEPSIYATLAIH
Description: as §1

[6] = target: T3, human LILRB1 expressed on 293T cells; assay: cell ELISA, 293T-LILRB1 cells, antibody 2 ug/ml
Description: as §1

[7] = target: T2, human LILRB3 expressed on 293T cells; assay: flow cytometry on 293T transfectants, MFI
Description: (§2) The cells were then immobilized with glutaraldehyde in the presence of 5% defatted milk at room temperature for 2 hours. An anti-LILRB2 antibody (5 μg/ml) was added to each well and incubated at room temperature for 1 hours. An Alex Flour®-labelled goat anti-mouse secondary antibody (1:2,000 dilution) was then added into each well and incubated at room temperature for 30′. The cells were washed twice with PBS after the staining. Fluorescence intensities (MFI) were measured.

[8] = target: T3, human LILRB1 expressed on 293T cells; assay: flow cytometry on 293T transfectants, MFI
Description: as §2

[9] = target: T2, human LILRB3 expressed on 293T cells; assay: cell ELISA, 293T-LILRB3 cells, antibody 2 ug/ml
Description: as §1

[10] = target: T7, human LILRB2 expressed on cells …; assay: flow cytometry, blockade of PE-HLA-G tetramer binding to 293T-huLILRB2 cells
Description: Pre-experimentation was performed to determine parameters for this assay. […] The cells were washed twice and then analysed by flow cytometry. […] FIG. 3C.
A mouse IgG (mIgG) antibody was used as a negative control.

[11] = target: T7, human LILRB2 expressed on cells …; assay: flow cytometry, blockade of PE-HLA-A2 tetramer binding to CHO-K1-huLILRB2 cells
Description: Pre-experimentation was performed to determine parameters for this assay. PE-labelled HLA-A2 tetramer at the concentration of 0.25 μg/ml and an anti-LILRB2 antibody at the concentration of 2.5 μg/ml were incubated with CHO-K1-huLILRB2 cells for 10 minutes. The cells were washed twice and then analysed by flow cytometry. […] FIG. 3A.
Clones 11B12, 9B6, and 9H6 were selected for dose-dependent blockade assays against HLA-A2 from binding to CHO-K1-huLILRB2 cells. A mouse IgG (mIgG) antibody was used as a negative control.

[12] = target: T7, human LILRB2 expressed on cells …; assay: flow cytometry, blockade of His-tagged HLA-G tetramer binding to 293T-LILRB2 cells; fit table under the graph, row headed EC50
Description: (§3) Serial diluted humanized LILRB2 antibodies were then added to the mixture and incubated at room temperature for another 45 minutes. The binding of HLA-G/LILRB2 was detected afterwards using a secondary PE-labeled anti-His tag antibody via flow cytometry.

[13] = target: T7, human LILRB2 expressed on cells …; assay: flow cytometry on 293T-LILRB2 cells, serial dilution, APC anti-human IgG; fit table under the graph
Description: (§4) The cells were washed and then subject to flow cytometry to measure levels of fluorescent signals.

[14] = target: T7, human LILRB2 expressed on cells …; assay: flow cytometry, blockade of His-tagged HLA-G tetramer binding to 293T-LILRB2 cells; fit table under the graph
Description: as §3

[15] = target: T7, human LILRB2 expressed on cells …; assay: flow cytometry on 293T-LILRB2 cells, serial dilution, APC anti-human IgG; fit table under the graph; remark: listed apart in the source
Description: as §4

LILRB2 antigen of the ELISA of Table 5 (format not specified), sequence (Q8N423 22-460 limits assumed): as the sequence (Q8N423 22-460 limits assumed) above

B1: Antibody 7C12 (antibody, V domains shown)
VH: EVQLQQSGPDLVKPGASVKISCKASGYIFTDFNMHWVKQSHGKSLEWIGYIYPFNGGTGYNQKFENMATLTVDISSSTAYMEVRSLTSEDSAVYYCARRGGRGHFDYWGQGTTLTVSS
VL: DIQMTQSPASLSASVGETVTVTCRASGNIHNYLAWYQQKQGKSPQLLVYNAKTLADGVPSRFSGSGSGIQFSLKINSLQPEDFGSYYCQHFWNTPFTFGSGTKLEIK
notes: Mouse hybridoma mAb purified from ascites
Kd [1]: 0.631 nM
Kd [2]: 0.792 nM
koff [2]: 0.000209 s⁻¹
kon [2]: 263000 M⁻¹ s⁻¹
binding result [3]: no binding (tested: 2 µg/ml)
binding result [4]: no binding (tested: 2 µg/ml)

B2: Antibody 3C12 (antibody, V domains shown)
VH: QVQLKESGPGLVAPSQSLSITCTVSGFSLTSYGVHWVRQSPGKGLEWLGVIWAGGTTNYNSALMSRLSISKDNSKSQVFLKMNSLQADDTAMYYCARGGYGHSMDYWGQGTSVTVSS
VL: DIVMTQSHKFMSTSVGDRVSITCKASQDVSNAVAWYQQKPGQSPKLLIYSASYRYTGVPDRFTGSGSGTDFIFTISSVQAEDLAVYYCQQHYSTPFTFGSGTKLEIK
notes: as for B1
Kd [1]: 5.01 nM
binding result (LILRB1-His): no binding
binding result (LILRB3-His): no binding
binding result [3]: no binding (tested: 2 µg/ml)
binding result [4]: no binding (tested: 2 µg/ml)

B3: Antibody 14F1 (antibody, V domains shown)
VH: B2 VH with S31T, S40P, A53T, T56S, S70I, A87T, M92I, S103T
VL: B2 VL with N31I, S43F, S65G, I72T
notes: as for B1
IC50 (LILRB2-Fc fusion protein): 0.942 nM
OD490 [5]: 1.21 OD490
Kd [1]: 1.24 nM
binding result (LILRB1-His): no binding
binding result (LILRB3-His): no binding
OD490 [6]: 0.172 OD490
binding result [7]: no binding (tested: 5 µg/ml)
binding result [8]: no binding (tested: 5 µg/ml)
OD490 [9]: 0.172 OD490
IC50 [10]: 0.82 nM

B4: Antibody 6H8 (antibody, V domains shown)
VH: QIQLVQSGPELKKPGETVRISCKASGYTFTNYGMNWVKQAPGKGLKWMGWINTYTGEPTYADDFRGRFALSLEPSASTASLQINNLKNEDTATYFCARYYDYDYFDYWGQGTTLTVSS
VL: DIVMTQSPSSLRVSAGEKVTMSCKSSQSLLNGGNQKNYLAWYQQKPGQPPKVLIYGASTRVSGVPDRFTGRGSGIDFTLTISSVEAEDLAVYYCQNDLSYPLTFGAGTKLELK
notes: as for B1
Kd [1]: 5.7 nM
binding result (LILRB1-His): no binding
binding result (LILRB3-His): no binding
binding result [3]: no binding (tested: 2 µg/ml)
binding result [4]: no binding (tested: 2 µg/ml)

B5: Antibody 11B12 (antibody, V domains shown)
VH: DVQLQESGPGLVKPSQSLSLTCSVTGYSITSGYYWNWIRQFPGNKLEWMGYISYDGNNNYNPSLKNRISITRDTSKNQFFLKLNSVTTEDTATYYCAREESTMITTAWFAYWGQGTLVTVSA
VL: DIQMTQSPASLSVSVGETVTITCRASENIYSNLAWYQQKQGKSPQLLVYGATNLADGVPSRFSGSGSGTQYSLKINSLQSEDFGSYFCQHFWDTPYTFGGGTKLEIK
notes: as for B1
IC50 (LILRB2-Fc fusion protein): 1 nM
Kd [1]: 3.2 nM
binding result (LILRB3-His): no binding
Kd [2]: 0.353 nM
koff [2]: 0.00032 s⁻¹
kon [2]: 905000 M⁻¹ s⁻¹
IC50 [11]: 0.475 nM
binding result [3]: no binding (tested: 2 µg/ml)
binding result [4]: no binding (tested: 2 µg/ml)
IC50 [10]: 0.857 nM

Next, values leading:

EC50 [12]: 0.219 nM
Bmax [13]: 606000 RFU
Kd [13]: 0.256 nM
Span [14]: 8850 RFU
B6: Antibody h#2B1 (antibody, V domains shown)
VH: EVQLVESGGGLVQPGGSLRLSCAVSGYSITSGYYWNWIRQAPGKGLEWVAYISYDGNNNYNPSLKNRFTISRDASKNTVYLQMNSLRAEDTAVYYCAREESTMITTAWFAYWGQGTLVTVSS
VL: DIQMTQSPSSLSASVGDRVTITCRASENIYSNLAWYQQKPGKAPKLLIYGATNLASGVPSRFSGSGSGTDYTLTISSLQPEDFATYYCQHFWDTPYTFGQGTKVEIK
notes: Humanized variant of 11B12

EC50 [12]: 0.131 nM
Span [14]: 7640 RFU
Bmax [15]: 608000 RFU
Kd [15]: 0.362 nM
B7: Antibody h#2D2 (antibody, V domains shown)
VH: B6 VH with V79F
VL: B6 VL
notes: Humanized variant of 11B12

EC50 [12]: 0.389 nM
Bmax [13]: 615000 RFU
Kd [13]: 0.317 nM
Span [14]: 8780 RFU
B8: Antibody h#2E2 (antibody, V domains shown)
VH: B6 VH with A74T
VL: B6 VL
notes: Humanized variant of 11B12

binding result [3]: no binding (tested: 2 µg/ml)
binding result [4]: no binding (tested: 2 µg/ml)
B9: Antibody 2C1 (antibody, V domains shown)
VH: EVKLVEPGGGLVQPGGSLRLSCATSGFTFSDFYMGWVRQPPGKRLEWIAASGNKAHDYATEYSASVKGRFFVSRDTFQSILYLQMNALRAEDTAIYYCARSYYYGSSAWFTYWGQGTLVTVSV
VL: DIVMTQSHKFMSTSIRDRVTIACKASQDVGTAVAWYQQKPGQSPKLLIFWASTRHAGVPDRFTGSGSGTDFTLTISNVQSEDLTDYFCQQYSSYPLTFGAGTKLELK
notes: as for B1
